Data taken from patent publication US20230265179A1 (TWIST BIOSCIENCE, published 2023).
Changes are numbered by the printed parent chain.

B1: CD40L-371 (antibody, V domains shown)
VH: EVQLLESGGGLVQPGGSLRLSCAASGFTSNIYAMSWVRQAPGKGLEWVSAISGSGFSTYYADSVKGRFTISRDNSKNTLYLQMNSLRAEDTAVYYCAKLAQNYGDPDAFDIWGQGTLVTVSS
VL: DIQMTQSPSSLSASVGDRVTITCRASQSISKYLNWYQQKPGKAPKLLIYAATSLESGVPSRFSGSGSGTDFTLTISSLQPEDFATYYCQQSYSTPLFTFGGGTKVEIK
B2: CD40L-416 (antibody, V domains shown)
VH: EVQLLESGGGLVQPGGSLRLSCAASGFTFSNYAMSWVRQAPGKGLEWVSAISGSGHSTYYADSVKGRFTISRDNSKNTLYLQMNSLRAEDTAVYYCARGGGYYNPLLFDYWGQGTLVTVSS
VL: B1 VL with S28Y, K31T, T52S, S53T, S56T, T94I, L96P, F97V
B3: CD40L-383 (antibody, V domains shown)
VH: EVQLLESGGGLVQPGGSLRLSCAASGFTFSNYAMSWVRQAPGKGLEWVSAITGSGSTTYYADSVKGRFTISRDNSKNTLYLQMNSLRAEDTAVYYCARAHDYDSMLMDYWGQGTLVTVSS
VL: DIQMTQSPSSLSASVGDRVTITCRASQYINNYLNWYQQKPGKAPKLLIYASSTLQRGVPSRFSGSGSGTDFTLTISSLQPEDFATYYCQQSFSTPITFGGGTKVEIK
B4: CD40L-363 (antibody, V domains shown)
VH: EVQLLESGGGLVQPGGSLRLSCAASGFTFSDYDMSWVRQAPGKGLEWVSGISGSGATTYYADSVKGRFTISRDNSKNTLYLQMNSLRAEDTAVYYCARDSSGSYYYPLDYWGQGTLVTVSS
VL: DIQMTQSPSSLSASVGDRVTITCRTSQSISSYANWYQQKPGKAPKLLIYGASRLESGVPSRFSGSGSGTDFTLTISSLQPEDFATYYCQQTYSTPWTFGGGTKVGIK
B5: CD40L-404 (antibody, V domains shown)
VH: EVQLLESGGGLVQPGGSLRLSCAASGFTFRTYAMGWVRQAPGKGLEWVSAISGSGGIAYYADSVKGRFTISRDNSKNTLYLQMNSLRAEDTAVYYCARHYYYDSSDAFDIWGQGTLVTISS
VL: DIQMTQSPSSLSASVGDRVTITCRASQTISYYLNWYQQKPGKAPKLLIYDATSLQSGVPSRFSGSGSGTDFTLTISSLQPEDFATYYCQQTYSLPLTFGGGTKVEIK
B6: CD40L-373 (antibody, V domains shown)
VH: B5 VH
VL: B4 VL with T25G, Y32F, A33L, G50A, R53K, E55H, Q90H, T91S, W96L, G105E
B7: CD40L-355 (antibody, V domains shown)
VH: EVQLLESGGGLVQPGGSLRLSCAASGFIFSNYDMSWVRQAPGKGLEWVSGISGSGGSTSYADSVKGRFTISRDNSKNTLYLQMNSLRAEDTAVYYCARHGGYNPYGLDYWGQGTLVTVSS
VL: B5 VL with S9F, T28N, S30L, Y31T, D50G, T52S, S53T, Q55R, T91S, S93R
B8: CD40L-381 (antibody, V domains shown)
VH: EVQLLESGGGLVQPGGSLRLSCAASGFTFSSYDMNWVRQAPGKGLEWVAAISGSGGTTYYADSVKGRFTISRDNSKNTLYLQMNSLRAEDTAVYYCARGVYESMTGTYGYVDWFDPWGQGTLVTVSS
VL: B5 VL with T28S, S30P, Y31T, D50A, T52A, S53N, T91S, S93A, L94T, L96F
B9: CD40L-403 (antibody, V domains shown)
VH: EVQLLESGGGLVQPGGSLRLSCAASGFTFRNYGMNWVRQAPGKGLEWVSSISGSGDYTYYADSVKGRFTISRDNSKNTLYLQMNSLRAEDTAVYYCARGLTYDILPRFDSWGQGTLVTVSS
VL: B5 VL with Y31P, D50A, T52S, S53T, S56A, G64S, T91S
B10: CD40L-358 (antibody, V domains shown)
VH: EVQLLESGGGLVQPGGSLRLSCAASGFTFSTYAMNWVRQAPGKGLEWVSAISGSGGTTYYADSVKGRFTISRDNSKNTLYLQMNSLRAEDTAVYYCARGPNNWNYVSFDYWGQGTLVTVSS
VL: B5 VL with T28Y, S30G, Y31T, D50A, T52A, S53N, T91S, L94I
B11: CD40L-359 (antibody, V domains shown)
VH: EVQLLESGGGLVQPGGSLRLSCAASGYTFSSYAMSWVRQAPGKGLEWVSGISGGGTSTYYADSVKGRFTISRDNSKNTLYLQMNSLRAEDTAVYYCARFGNHYDRTGYSDYWGQGTLVTVSS
VL: B5 VL with T28N, S30G, Y31G, D50G, T52S, S53R, T91S, L94T, L96F
B12: CD40L-360 (antibody, V domains shown)
VH: EVQLLESGGGLVQPGGSLRLSCAASGFTFGRYAMSWVRQAPGKGLEWVSDISGSGGSTYYADSVKGRFTISRDNSKNTLYLQMNSLRAEDTAVYYCARDGFRWGRAEYFQHWGQGTLVTVSS
VL: B5 VL with Y31S, N34S, T52S, S53T, T91S, S93R, L94I
B13: CD40L-414 (antibody, V domains shown)
VH: EVQLLESGGGLVQPGGSLRLSCAASGFTFSNYAMSWVRQAPGKGLEWVSAITGSGSTTYYADSVKGRFTISRDNSKNTLYLQMNSLRAEDTAVYYCATDYGDYDRLNFDLWGQGTLVTVSS
VL: DIQMTQSPSSLSASVGDRVTITCRASQSIGTFLNWYQQKPGKAPKLLIYGTSNLQSGVPSRFSGSGSGTDFTLTISSLQPEDFATYYCQQGYRTPLTFGGGTKVEIK
B14: CD40L-382 (antibody, V domains shown)
VH: B13 VH with T28G, N31S, T52S, S54G, S56G, T57S, T58I
VL: B13 VL
B15: CD40L-365 (antibody, V domains shown)
VH: EVQLLESGGGLVQPGGSLRLSCAASGFTFSYYAMTWVRQAPGKGLEWVSGISGSGGSSYYADSVKGRFTISRDNSKNTLYLQMNSLRAEDTAVYYCARSHDYDRQTFDYWGQGTLVTVSS
VL: B13 VL with G30A, F32Y, N34H, G50S, T51A, N53T, Q55E, G91S, T94P
B16: CD40L-398 (antibody, V domains shown)
VH: B3 VH
VL: B13 VL with S9F, S28N, G30L, F32Y, T51A, N53T, Q55R, G91S, T94L
B17: CD40L-376 (antibody, V domains shown)
VH: B15 VH with Y31S, T35S, G50A, G53A, S57T, S58T
VL: B13 VL with G30S, N34S, G50A, N53T, Q55E, G91S, R93S
B18: CD40L-362 (antibody, V domains shown)
VH: EVQLLESGGGLVQPGGSLRLSCAASGFTFTSYAMSWVRQAPGKGLEWVSGISGSGINTYYADSVKGRFTISRDNSRNTLYLQMNSLRAEDTAVYYCVRSSWSDVWGQGTLVTVSS
VL: B5 VL with T28N, S30I, Y31N, D50G, T52S, S53T, Q55E, T91S, L94V
B19: CD40L-418 (antibody, V domains shown)
VH: B12 VH
VL: B13 VL with Q27E, G30T, F32Y, G50T, T51A, N53G, G91S, R93T, T94V, L96I
B20: CD40L-364 (antibody, V domains shown)
VH: EVQLLESGGGLVQPGGSLRLSCAASGFTFSPYAMSWVRQAPGKGLEWVSSITGTGGSTYYADSVKGRFTISRDNSKNTLYLQMNSLRAEDTAVYYCARSWASEDFDWLPNFDFWGQGTLVTVSS
VL: B5 VL with A25V, T28S, Y31S, N34H, D50A, T52S, S56T, T91S, S93T
B21: CD40L-380 (antibody, V domains shown)
VH: B3 VH with T28G, N31S, T52S, S54G, S56G, T57S, T58I
VL: B13 VL with I29V, G30S, T31R, G50A, T51A, N53T, S56P, G91S, R93E
B22: CD40L-372 (antibody, V domains shown)
VH: B3 VH with S30T, N31S, S35T, A50S, G53S, S56G, T57S
VL: B3 VL with Y28S, N30R, N31S, S51T, T53S, Q55H, R56S, L78M, T94L, I96P
B23: CD40L-366 (antibody, V domains shown)
VH: B3 VH with T28G, N31S
VL: B13 VL with I29V, G30S, T31R, G50A, T51A, N53T, S56P, G91S, R93E
B24: CD40L-419 (antibody, V domains shown)
VH: B3 VH
VL: B3 VL with S26G, Y28S, N30S, N31S, F92H, T94V, I96L
B25: CD40L-434 (antibody, V domains shown)
VH: EVQLLESGGGLVQPGGSLRLSCAASGFGFSSYAMSWVRQAPGKGLEWVSAISGGGGSIYYADSVKGRFTISRDNSKNTLYLQMNSLRAEDTAVYYCARHGGYYYYYMDVWGQGTLVTVSS
VL: B13 VL with I29V, G30S, T31R, G50A, T51A, N53T, S56P, G91S, R93E

target: T1, CD40L (UniProt P29965 1-261, limits assumed); experiment: flow cytometry, 100 nM IgG, CD40L over-expressing Expi293 cells over parent Expi293 cells
T1 construct: whole, on cells; also called cytokine over-expressing Expi293 cells (CD40L)
T1 sequence (looked up): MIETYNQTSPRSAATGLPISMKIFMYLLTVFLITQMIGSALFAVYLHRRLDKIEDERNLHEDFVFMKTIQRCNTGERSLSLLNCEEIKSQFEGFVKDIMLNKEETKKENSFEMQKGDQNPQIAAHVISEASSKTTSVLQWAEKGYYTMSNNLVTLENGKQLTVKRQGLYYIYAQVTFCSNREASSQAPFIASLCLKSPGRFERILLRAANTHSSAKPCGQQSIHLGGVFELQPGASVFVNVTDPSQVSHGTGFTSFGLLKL
Procedure: All incubations and washes were in buffer containing PBS+1% BSA. MFI Ratio is defined by the mean fluorescence intensity (MFI) of the cytokine over-expressing Expi293 cell over the Expi293 parent cell. […] EC50 was calculated in GraphPad Prism.

Going from B1 to B2, the “100 nM FACS (MFI Ratio)” value falls from 3.5 MFI ratio to 3.4 MFI ratio.

Compared with B3, B4 is lower in “100 nM FACS (MFI Ratio)” value: 24.1 MFI ratio for the first, 3 MFI ratio for the second.

Going from B5 to B6, the “100 nM FACS (MFI Ratio)” value falls from 7.1 MFI ratio to 1.7 MFI ratio.

First: B7
Second: B8
The “100 nM FACS (MFI Ratio)” value of the first is higher: 7.6 MFI ratio for the first, 1.7 MFI ratio for the second.

First: B9
Second: B10
The “100 nM FACS (MFI Ratio)” value of the first is lower: 3.1 MFI ratio for the first, 4.2 MFI ratio for the second.

Going from B11 to B12, the “100 nM FACS (MFI Ratio)” value rises from 5.1 MFI ratio to 15.4 MFI ratio.

Compared with B13, B14 is lower in “100 nM FACS (MFI Ratio)” value: 11.2 MFI ratio for the first, 10.7 MFI ratio for the second.

First: B15
Second: B16
The “100 nM FACS (MFI Ratio)” value of the first is lower: 4.6 MFI ratio for the first, 45.1 MFI ratio for the second.

Going from B17 to B18, the “100 nM FACS (MFI Ratio)” value rises from 13.5 MFI ratio to 1060 MFI ratio.

Compared with B19, B20 is higher in “100 nM FACS (MFI Ratio)” value: 3.6 MFI ratio for the first, 6.8 MFI ratio for the second.

Going from B21 to B22, the “100 nM FACS (MFI Ratio)” value rises from 8.4 MFI ratio to 8.5 MFI ratio.

Compared with B23, B24 is lower in “100 nM FACS (MFI Ratio)” value: 43 MFI ratio for the first, 18.6 MFI ratio for the second.

With B25 the “100 nM FACS (MFI Ratio)” value was 6.1 MFI ratio.
